Laboratory results: US20140378372A1 (SERPIN PHARMA, published 2014)

Molecular target: hERG (channel tested in the hERG FastPatch assay) (UniProt Q12809 1-1159)
Test: cell-based or functional assay

Sequence of hERG (channel tested in the hERG FastPatch assay) (Q12809 whole entry): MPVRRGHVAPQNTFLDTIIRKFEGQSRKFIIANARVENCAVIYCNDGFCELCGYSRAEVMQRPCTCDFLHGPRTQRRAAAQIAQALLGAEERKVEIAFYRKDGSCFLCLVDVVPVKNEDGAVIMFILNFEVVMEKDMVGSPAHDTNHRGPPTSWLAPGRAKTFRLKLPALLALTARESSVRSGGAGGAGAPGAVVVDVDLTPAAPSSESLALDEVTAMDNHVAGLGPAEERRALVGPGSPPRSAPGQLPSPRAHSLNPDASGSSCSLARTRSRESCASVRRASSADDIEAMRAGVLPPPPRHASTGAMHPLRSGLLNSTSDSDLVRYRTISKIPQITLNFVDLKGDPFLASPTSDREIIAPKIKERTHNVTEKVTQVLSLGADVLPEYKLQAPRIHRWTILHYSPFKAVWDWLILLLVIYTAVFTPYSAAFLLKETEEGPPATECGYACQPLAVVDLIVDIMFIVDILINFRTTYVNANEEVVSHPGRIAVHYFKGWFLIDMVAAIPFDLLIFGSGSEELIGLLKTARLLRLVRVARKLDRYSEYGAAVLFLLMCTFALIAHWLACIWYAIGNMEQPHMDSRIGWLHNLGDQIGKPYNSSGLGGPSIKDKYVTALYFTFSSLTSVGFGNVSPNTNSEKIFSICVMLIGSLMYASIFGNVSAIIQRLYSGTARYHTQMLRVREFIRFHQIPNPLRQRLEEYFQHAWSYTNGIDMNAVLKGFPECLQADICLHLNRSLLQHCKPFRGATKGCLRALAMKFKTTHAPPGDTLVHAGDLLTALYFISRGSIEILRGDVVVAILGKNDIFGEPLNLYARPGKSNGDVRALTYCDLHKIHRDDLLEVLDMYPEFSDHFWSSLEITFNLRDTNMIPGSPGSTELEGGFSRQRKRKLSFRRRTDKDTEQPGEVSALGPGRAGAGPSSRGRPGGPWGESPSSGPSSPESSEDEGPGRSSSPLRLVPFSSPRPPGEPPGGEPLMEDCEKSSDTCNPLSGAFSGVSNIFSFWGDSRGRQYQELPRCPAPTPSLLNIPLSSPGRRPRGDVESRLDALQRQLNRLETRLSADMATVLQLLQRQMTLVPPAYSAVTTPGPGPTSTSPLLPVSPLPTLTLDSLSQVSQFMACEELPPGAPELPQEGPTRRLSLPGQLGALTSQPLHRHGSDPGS

Binder: VKFNKPFVFLMIEQNTK [SP16 peptide (C36 Core sequence, long; derived from human alpha-1-antitrypsin)]
- IC50 value (hERG FastPatch assay, test conc 0.008-25 uM): > 25 µM
